Experimental data reported in patent US20200308303A1.

Experiments:
[1] = biological target: human ADAMTS13 (A Disintegrin And Metalloproteinase with a ThromboSpondin type 1 motif, member 13) (human) (UniProt Q76LX8); experiment: cell-based or functional assay
[2] = biological target: human ADAMTS13 (A Disintegrin And Metalloproteinase with a ThromboSpondin type 1 motif, member 13) (human) (UniProt Q76LX8); experiment: sandwich ELISA: dilution series of coated antibody (10 to 0.02 µg/mL), constant 15% normal human plasma; half maximal binding by nonlinear regression

Sequence of human ADAMTS13 (A Disintegrin And Metalloproteinase with a ThromboSpondin type 1 motif, member 13) (human) (Q76LX8 75-1427): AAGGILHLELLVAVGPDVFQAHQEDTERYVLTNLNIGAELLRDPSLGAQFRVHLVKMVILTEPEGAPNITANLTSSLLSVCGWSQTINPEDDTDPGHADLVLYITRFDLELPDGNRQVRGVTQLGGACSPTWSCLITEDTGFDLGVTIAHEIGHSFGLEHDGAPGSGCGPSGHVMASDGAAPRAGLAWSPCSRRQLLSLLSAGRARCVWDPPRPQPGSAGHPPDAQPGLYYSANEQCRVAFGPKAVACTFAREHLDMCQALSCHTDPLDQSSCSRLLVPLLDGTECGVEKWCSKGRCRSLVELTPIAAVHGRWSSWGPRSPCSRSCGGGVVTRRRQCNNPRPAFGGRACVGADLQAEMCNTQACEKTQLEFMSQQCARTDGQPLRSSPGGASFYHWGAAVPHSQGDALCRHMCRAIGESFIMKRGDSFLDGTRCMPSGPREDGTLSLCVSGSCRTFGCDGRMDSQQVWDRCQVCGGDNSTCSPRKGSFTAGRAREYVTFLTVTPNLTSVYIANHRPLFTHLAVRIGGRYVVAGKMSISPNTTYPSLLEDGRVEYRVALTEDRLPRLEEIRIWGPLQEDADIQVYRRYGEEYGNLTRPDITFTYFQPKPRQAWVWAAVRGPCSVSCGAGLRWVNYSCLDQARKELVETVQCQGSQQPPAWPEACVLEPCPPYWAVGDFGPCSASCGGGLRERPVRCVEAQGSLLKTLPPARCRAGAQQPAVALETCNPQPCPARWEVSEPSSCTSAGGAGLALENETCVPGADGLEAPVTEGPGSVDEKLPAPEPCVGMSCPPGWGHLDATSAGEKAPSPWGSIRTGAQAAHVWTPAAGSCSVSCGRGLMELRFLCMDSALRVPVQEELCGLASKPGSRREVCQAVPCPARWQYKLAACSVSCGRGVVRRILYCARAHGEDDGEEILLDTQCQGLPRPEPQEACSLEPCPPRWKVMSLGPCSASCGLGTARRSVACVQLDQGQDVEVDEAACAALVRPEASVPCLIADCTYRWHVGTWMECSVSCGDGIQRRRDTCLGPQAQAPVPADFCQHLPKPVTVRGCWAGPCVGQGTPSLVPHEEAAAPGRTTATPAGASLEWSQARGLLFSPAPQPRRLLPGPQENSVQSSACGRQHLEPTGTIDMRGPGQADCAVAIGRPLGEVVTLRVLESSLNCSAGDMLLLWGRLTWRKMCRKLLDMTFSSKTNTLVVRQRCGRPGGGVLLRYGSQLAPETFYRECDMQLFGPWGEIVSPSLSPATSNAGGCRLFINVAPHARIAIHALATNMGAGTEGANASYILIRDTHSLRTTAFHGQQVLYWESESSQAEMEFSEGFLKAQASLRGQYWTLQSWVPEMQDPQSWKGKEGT

half maximal inhibitory concentration (IC50) of ADAMTS13 activity in normal human plasma, FRETS-VWF73 assay [1]: 0.47 µg/mL
half-maximal binding concentration (EC50) of coated antibody [2]: 0.51 µg/mL
B1: monoclonal anti-ADAMTS13 antibody 17C7 (antibody, V domains shown)
VH: EVQLVESGGDLVKSGGSLKLSCAASGFIFSNYAMSWVRQTPEKRLEWGATITTGGFYTFYSDSVKGRFTISRDNAKNTLYLQMSSLRSEDTAMYYCARHRYDDYYALDYWGQGTSVTVSS
VL: ENVLTQSPAIMSTSPGEKVTMTCNVSSSVSYMRWFQQKSSTSPKLWIYDTSKLASGVPGRFSGSGSGHSYSLTISSMEADDVATYYCFQGNGYPLTFGAGTKLELK
modifications: Biotinylated when used as detector; the site is not stated and the letters cannot carry it.
